The target of one experiment is HLA-A*02:01. Description: IEDB peptide-MHC binding, purified MHC/competitive/radioactivity; ≥ and ≤ were set here for values at or beyond the usual limits of such assays. The note with it: source organism: Bordetella pertussis.
As to IIKDAPPGA, the IC50 amounted to 15.4 µM.

Regarding EGGKLRGKD, the IC50 was not below 78.1 µM.

As for VKLGGVYEA, the IC50 was 9.59 µM.

On to TLSSAHGNV, for which the 50% inhibitory concentration (IC50) came to 48.6 µM.

As for IIQEFAADL, the half-inhibitory concentration (IC50) worked out at 4.15 µM.

Another experiment deals with HLA-B*07:02. Described as above. The note with it: source organism: Bordetella pertussis.
Turning to MPKAPELDL, the half-maximal inhibitory concentration (IC50) amounted to 21 µM.

Regarding RPSVNGGRI, the concentration for half-maximal inhibition (IC50) came to 0.348 µM.

The target of another experiment is HLA-B*35:01. Described as above. The following applies: source organism: Bordetella pertussis.
As for ILAGALATY, the IC50 turned out to be 4.29 µM.

As for GEAMVLVYY, the IC50 is 36.4 µM.

On to LAGSGLFRM, for which the IC50 was determined as 0.767 µM.

Turning to MAPVMGACM, the concentration for half-maximal inhibition (IC50) came out at 5 µM.

The next experiment has as its target HLA-B*44:03. Described as above. The following applies: source organism: Bordetella pertussis.
Turning to TEAQGVQVR, the IC50 amounted to 19.9 µM.

For AQVTVAGRY, the IC50 stood at 3.25 µM.

AEIAFYPKE: the 50% inhibitory concentration (IC50) came out at 0.48 µM.

For the sequence RETFCITTI, the IC50 stood at 0.214 µM.

Another experiment concerns the target HLA-B*53:01. Described as above. The note with it: source organism: Bordetella pertussis.
Turning to HANHYGTRI, the IC50 amounted to 52.1 µM.

As to TAPVTSPAW, the IC50 is 4.36 µM.

Consider FPTRTTAPG, for which the 50% inhibitory concentration (IC50) was determined as 0.894 µM.

For a further experiment, the target named is HLA-B*57:01. Described as above. The following applies: source organism: Bordetella pertussis.
On to AARVAGDNY, for which the IC50 amounted to 32.3 µM.

Take RRFTHADGW: the IC50 was 55.9 µM.

Regarding RSGARATSL, the IC50 came to 21.9 µM.

With RARRALRQD, the IC50 was 13.5 µM.

Take KATVTTVQV: the 50% inhibitory concentration (IC50) was 35.2 µM.

SVKVAKKLF: the half-inhibitory concentration (IC50) is not below 70.4 µM.
